Experimental findings from patent publication US20200339678A1 (RIGEL PHARMACEUTICALS, published 2020) are described below.

Assay [1] addresses T1, His-tagged recombinant Human TIGIT (human, UniProt Q495A1 22-141).
T1 construct: also called VSIG9; VSTM3; not shown: His tag
T1 sequence (looked up): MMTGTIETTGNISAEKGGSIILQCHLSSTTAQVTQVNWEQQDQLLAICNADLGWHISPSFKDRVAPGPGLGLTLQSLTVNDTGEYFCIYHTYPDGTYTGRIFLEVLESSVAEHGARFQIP
Briefly: ELISA, coated His-tagged human TIGIT. Here is the method: (§1) Binding affinities for antigen binding to anti-TIGIT monoclonal antibodies were determined by ELISA. […] Antibodies to be tested were diluted to 1 μM in PBS buffer containing 1% BSA and diluted 3-fold in a 10-point curve. […] Detection of the secondary antibody was determined using streptavidin-HRP and TMB reagent. All assays were performed at room temperature. Curve-fitting software was used to determine the EC₅₀ for each antibody.

For assay [2], the target named is T2, His-tagged recombinant Mouse TIGIT (mouse, UniProt P86176 29-148, limits assumed).
T2 construct: not shown: His tag
T2 sequence (looked up): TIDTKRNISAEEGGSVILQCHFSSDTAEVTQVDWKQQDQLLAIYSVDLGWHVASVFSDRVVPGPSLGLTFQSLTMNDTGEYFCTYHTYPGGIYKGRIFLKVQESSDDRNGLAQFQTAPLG
Briefly: ELISA, coated His-tagged mouse TIGIT. Here is the method: as §1

B1: Ab1 (Fab, V domains shown)
VH: EVQLLESGGGLVQPGGSLRLSCAASGFTFSSYAMHWVRQAPGKGLEWVSGISSNGGSTSYADSVKGRFTISRDNSKNTLYLQMNSLRAEDTAVYYCARVPYSVWIDYWGQGTLVTVSS
VL: not shown
notes: ARV set; also called clone Ab1
With B1, the EC50 came out at 40.3 nM in assay [1] and 181 nM in assay [2].

B2: Ab170 (Fab, V domains shown)
VH: EVQLLESGGGLVQPGGSLRLSCAASGFTFNSYAMHWVRQAPGKGLEWVAYISGNAGSIYYADSVKGRFTISRDNSKNTLYLQMNSLRAEDTAVYYCARVPYSVWLDYWGQGTLVTVSS
VL: not shown
notes: ARV set
Turning to B2, in assay [1], the EC50 was determined as 138 nM.

B3: Ab93 (Fab, V domains shown)
VH: EVQLLESGGGLVQPGGSLRLSCAASGFTFSSYAMSWVRQAPGKGLEWVASISSSTGTISYADSVKGRFTISRDNSKNTLYLQMNSLRAEDTAVYYCARVPYSVWMDYWGQGTLVTVSS
VL: not shown
notes: ARV set
Consider B3, for which the EC50 in assay [1] was 122 nM.

B4: Ab7 (Fab, V domains shown)
VH: EVQLLESGGGLVQPGGSLRLSCAASGFTFSSYAMSWVRQAPGKGLEWVASIKSSSSSISYADSVKGRFTISRDNSKNTLYLQMNSLRAEDTAVYYCAREPYSYWLDYWGQGTLVTVSS
VL: not shown
notes: ARE set
In the case of B4, the figures for the EC50 in assay [1] and in assay [2] were 14.6 nM and 11.5 nM, respectively.

B5: Ab187 (Fab, V domains shown)
VH: EVQLLESGGGLVQPGGSLRLSCAASGFTFSSYSMSWVRQAPGKGLEWVASIKSDASTTGYADSVKGRFTISRDNSKNTLYLQMNSLRAEDTAVYYCAREPYSVWLDYWGQGTLVTVSS
VL: not shown
notes: ARE set
Turning to B5, in assay [1], the EC50 came out at 6.2 nM.

B6: Ab78 (Fab, V domains shown)
VH: EVQLLESGGGLVQPGGSLRLSCAASGFTFSSYSMHWVRQAPGKGLEWVASISGSTSSSSYADSVKGRFTISRDNSKNTLYLQMNSLRAEDTAVYYCARVPYDVWMDYWGQGTLVTVSS
VL: not shown
notes: ARV set
B6: in assay [1], the EC50 is 119 nM.

B7: Ab152 (Fab, V domains shown)
VH: EVQLLESGGGLVQPGGSLRLSCAASGFTFSSYSMHWVRQAPGKGLEWVTSISSNAGYISYADSVKGRFTISRDNSKNTLYLQMNSLRAEDTAVYYCARVPYDVWMDYWGQGTLVTVSS
VL: not shown
notes: ARV set
With B7, the EC50 in assay [1] worked out at 27.1 nM.

B8: Ab6 (Fab, V domains shown)
VH: EVQLLESGGGLVQPGGSLRLSCAASGFTFSDYSMSWVRQAPGKGLEWVARISSSSSYKSYADSVKGRFTISRDNSKNTLYLQMNSLRAEDTAVYYCAREPYSVWLDYWGQGTLVTVSS
VL: not shown
notes: ARE set
B8: the half-maximal effective concentration (EC50) in assay [1] came out at 25.4 nM.

B9: Ab143 (Fab, V domains shown)
VH: EVQLLESGGGLVQPGGSLRLSCAASGFTFSSYSMHWVRQAPGKGLEWVAAINSNAGSSSYADSVKGRFTISRDNSKNTLYLQMNSLRAEDTAVYYCARVPYGVWMDYWGQGTLVTVSS
VL: not shown
notes: ARV set; also called clone Ab143
For B9, the EC50 turned out to be 3.4 nM in assay [1] and 5.7 nM in assay [2].

B10: Ab12 (Fab, V domains shown)
VH: EVQLLESGGGLVQPGGSLRLSCAASGFTFSSYAMSWVRQAPGKGLEWVASINSNGGYKSYADSVKGRFTISRDNSKNTLYLQMNSLRAEDTAVYYCAREPYGTWLDYWGQGTLVTVSS
VL: not shown
notes: ARE set
B10: the EC50 in assay [1] stood at 27.7 nM.

B11: Ab60 (Fab, V domains shown)
VH: EVQLLESGGGLVQPGGSLRLSCAASGFTFSSYSMHWVRQAPGKGLEWVSSISSSAGYTSYADSVKGRFTISRDNSKNTLYLQMNSLRAEDTAVYYCARVPYDVWLDYWGQGTLVTVSS
VL: not shown
notes: ARV set
B11: in assay [1], the EC50 is 79.8 nM.

B12: Ab97 (Fab, V domains shown)
VH: EVQLLESGGGLVQPGGSLRLSCAASGFTFSSYSMHWVRQAPGKGLEWVAAISSNTGSIGYADSVKGRFTISRDNSKNTLYLQMNSLRAEDTAVYYCARVPYDVWIDYWGQGTLVTVSS
VL: not shown
notes: ARV set
B12: the EC50 in assay [1] was determined as 289 nM.

B13: Ab155 (Fab, V domains shown)
VH: EVQLLESGGGLVQPGGSLRLSCAASGFTFSSYSMNWVRQAPGKGLEWVAAISGDTGTSGYADSVKGRFTISRDNSKNTLYLQMNSLRAEDTAVYYCAREPYSVWLDYWGQGTLVTVSS
VL: not shown
notes: ARE set
For the molecule B13, the EC50 in assay [1] was found to be 32.8 nM; in assay [2] it was 234 nM.

B14: Ab53 (Fab, V domains shown)
VH: EVQLLESGGGLVQPGGSLRLSCAASGFTFSSYSMHWVRQAPGKGLEWVASIKSSSSNKYYADSVKGRFTISRDNSKNTLYLQMNSLRAEDTAVYYCARGPYDVWLDYWGQGTLVTVSS
VL: not shown
notes: ARG set; also called clone Ab53
For B14, the EC50 in assay [1] worked out at 4.3 nM.

B15: Ab191 (Fab, V domains shown)
VH: EVQLLESGGGLVQPGGSLRLSCAASGFTFSSYSMHWVRQAPGKGLEWVSSIKSSASYSSYADSVKGRFTISRDNSKNTLYLQMNSLRAEDTAVYYCARVPYDYWMDYWGQGTLVTVSS
VL: not shown
notes: ARV set
For the molecule B15, the EC50 in assay [1] came out at 44.9 nM; in assay [2] it was 104 nM.

B16: Ab48 (Fab, V domains shown)
VH: EVQLLESGGGLVQPGGSLRLSCAASGFTFSSYSMNWVRQAPGKGLEWVANIKSSGSSTSYADSVKGRFTISRDNSKNTLYLQMNSLRAEDTAVYYCARGPYDVWMDYWGQGTLVTVSS
VL: not shown
notes: ARG set; also called clone Ab48
Regarding B16, the EC50 came to 13.8 nM in assay [1] and 41.8 nM in assay [2].

B17: Ab68 (Fab, V domains shown)
VH: EVQLLESGGGLVQPGGSLRLSCAASGFTFSSYSMHWVRQAPGKGLEWVAAIKGNTGSTYYADSVKGRFTISRDNSKNTLYLQMNSLRAEDTAVYYCARVPYGVWMDYWGQGTLVTVSS
VL: not shown
notes: ARV set
For the molecule B17, the EC50 in assay [1] came to 639 nM.

B18: Ab10 (Fab, V domains shown)
VH: EVQLLESGGGLVQPGGSLRLSCAASGFTFSSYSMNWVRQAPGKGLEWVAYIKSNSGTKGYADSVKGRFTISRDNSKNTLYLQMNSLRAEDTAVYYCARGPYDYWLDYWGQGTLVTVSS
VL: not shown
notes: ARG set
For the molecule B18, the 50% effective concentration (EC50) in assay [1] was 101 nM; in assay [2], 40.7 nM.

B19: Ab172 (Fab, V domains shown)
VH: EVQLLESGGGLVQPGGSLRLSCAASGFTFSSYSMHWVRQAPGKGLEWVSSIKSSAGYTYYADSVKGRFTISRDNSKNTLYLQMNSLRAEDTAVYYCARVPYDYWIDYWGQGTLVTVSS
VL: not shown
notes: ARV set
On to B19, for which the EC50 in assay [1] came to 83.2 nM; in assay [2], 108 nM.

B20: Ab28 (Fab, V domains shown)
VH: EVQLLESGGGLVQPGGSLRLSCAASGFTFSSYSMHWVRQAPGKGLEWVANINSNGGNTGYADSVKGRFTISRDNSKNTLYLQMNSLRAEDTAVYYCARVPYDVWMDYWGQGTLVTVSS
VL: not shown
notes: ARV set
As to B20, the EC50 in assay [1] amounted to 7.5 nM; in assay [2], 28.7 nM.

B21: Ab54 (Fab, V domains shown)
VH: EVQLLESGGGLVQPGGSLRLSCAASGFTFSSYAMSWVRQAPGKGLEWVSSIKSNTGSTSYADSVKGRFTISRDNSKNTLYLQMNSLRAEDTAVYYCAREPYSYWLDYWGQGTLVTVSS
VL: not shown
notes: ARE set
For the molecule B21, the 50% effective concentration (EC50) in assay [1] was found to be 91.9 nM; in assay [2], 21.5 nM.

B22: Ab193 (Fab, V domains shown)
VH: EVQLLESGGGLVQPGGSLRLSCAASGFTFSSYAMSWVRQAPGKGLEWVSAIKSDTSTIYYADSVKGRFTISRDNSKNTLYLQMNSLRAEDTAVYYCAREPYSTWLDYWGQGTLVTVSS
VL: not shown
notes: ARE set
For B22, the EC50 in assay [1] came out at 4.6 nM.

B23: Ab38 (Fab, V domains shown)
VH: EVQLLESGGGLVQPGGSLRLSCAASGFTFSSYTMSWVRQAPGKGLEWVAGIWSDSGNKGYADSVKGRFTISRDNSKNTLYLQMNSLRAEDTAVYYCARVPYSVWIDYWGQGTLVTVSS
VL: not shown
notes: ARV set
For the molecule B23, the EC50 in assay [1] is 45.5 nM.

B24: Ab40 (Fab, V domains shown)
VH: EVQLLESGGGLVQPGGSLRLSCAASGFTFSSYGMNWVRQAPGKGLEWVAGIKYSSGNKYYADSVKGRFTISRDNSKNTLYLQMNSLRAEDTAVYYCARGPYDVWMDYWGQGTLVTVSS
VL: not shown
notes: ARG set; also called clone Ab40
For B24, in assay [1], the EC50 was 0.3 nM.

B25: Ab179 (Fab, V domains shown)
VH: EVQLLESGGGLVQPGGSLRLSCAASGFTFSSYAMSWVRQAPGKGLEWVASIKSNTGSTYYADSVKGRFTISRDNSKNTLYLQMNSLRAEDTAVYYCAREPYSVWLDYWGQGTLVTVSS
VL: not shown
notes: ARE set
For B25, the figures for the EC50 in assay [1] and in assay [2] were 155 nM and 228 nM, respectively.

B26: Ab15 (Fab, V domains shown)
VH: EVQLLESGGGLVQPGGSLRLSCAASGFTFSSYSMHWVRQAPGKGLEWVASIWSNSGNTGYADSVKGRFTISRDNSKNTLYLQMNSLRAEDTAVYYCARVPYDYWMDYWGQGTLVTVSS
VL: not shown
notes: ARV set
With B26, the EC50 in assay [1] turned out to be 5 nM; in assay [2], 8.4 nM.

B27: Ab13 (Fab, V domains shown)
VH: EVQLLESGGGLVQPGGSLRLSCAASGFTFDSYSMHWVRQAPGKGLEWVSSINSNGGYKYYADSVKGRFTISRDNSKNTLYLQMNSLRAEDTAVYYCARVPYDYWIDYWGQGTLVTVSS
VL: not shown
notes: ARV set
B27: the EC50 in assay [1] worked out at 43.1 nM; in assay [2], 59.2 nM.

B28: Ab22 (Fab, V domains shown)
VH: EVQLLESGGGLVQPGGSLRLSCAASGFTFSSYSMHWVRQAPGKGLEWVASIKSSGGSKYYADSVKGRFTISRDNSKNTLYLQMNSLRAEDTAVYYCARVPYDYWMDYWGQGTLVTVSS
VL: not shown
notes: ARV set
Take B28: the figures for the EC50 in assay [1] and in assay [2] were 9.1 nM and 5.1 nM, respectively.

B29: Ab2 (Fab, V domains shown)
VH: EVQLLESGGGLVQPGGSLRLSCAASGFTFSSYGMNWVRQAPGKGLEWVAGINYSSGNKYYADSVKGRFTISRDNSKNTLYLQMNSLRAEDTAVYYCARGPYASTWLDYWGQGTLVTVSS
VL: not shown
notes: ARG set
Regarding B29, the EC50 in assay [1] is 15.7 nM.
